Experimental data taken from publication PMC12313019 (2025).

Target: integrin-αvβ1 (UniProt P06756 31-1048; P05556 21-798)
Test: SPR

Sequence of integrin-αvβ1 (P06756 31-992, chain 1 of 2): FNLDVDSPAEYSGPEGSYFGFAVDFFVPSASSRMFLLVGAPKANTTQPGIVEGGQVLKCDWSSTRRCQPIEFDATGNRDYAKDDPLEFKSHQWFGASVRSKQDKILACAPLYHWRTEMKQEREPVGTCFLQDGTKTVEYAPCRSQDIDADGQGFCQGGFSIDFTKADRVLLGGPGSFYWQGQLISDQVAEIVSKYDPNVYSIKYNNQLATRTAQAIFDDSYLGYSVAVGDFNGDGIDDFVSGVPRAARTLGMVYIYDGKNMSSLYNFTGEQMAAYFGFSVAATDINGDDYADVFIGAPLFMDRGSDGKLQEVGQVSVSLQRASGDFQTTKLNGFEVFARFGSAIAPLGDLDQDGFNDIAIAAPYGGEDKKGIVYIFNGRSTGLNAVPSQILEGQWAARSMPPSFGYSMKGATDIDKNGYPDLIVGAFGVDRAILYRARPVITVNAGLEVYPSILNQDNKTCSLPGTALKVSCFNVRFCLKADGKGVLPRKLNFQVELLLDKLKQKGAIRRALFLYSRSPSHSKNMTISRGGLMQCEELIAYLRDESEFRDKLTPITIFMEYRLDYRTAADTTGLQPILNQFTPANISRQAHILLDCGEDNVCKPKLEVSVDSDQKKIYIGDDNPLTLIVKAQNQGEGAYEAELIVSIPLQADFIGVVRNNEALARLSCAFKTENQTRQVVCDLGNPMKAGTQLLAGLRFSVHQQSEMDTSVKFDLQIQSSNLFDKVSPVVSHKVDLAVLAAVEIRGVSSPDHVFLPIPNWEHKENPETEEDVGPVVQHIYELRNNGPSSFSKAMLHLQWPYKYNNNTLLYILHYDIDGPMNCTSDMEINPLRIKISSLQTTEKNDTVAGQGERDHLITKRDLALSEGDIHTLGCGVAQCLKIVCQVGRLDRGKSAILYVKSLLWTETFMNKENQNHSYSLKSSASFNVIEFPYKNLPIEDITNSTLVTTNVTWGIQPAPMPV
Sequence of integrin-αvβ1 (P05556 21-728, chain 2 of 2): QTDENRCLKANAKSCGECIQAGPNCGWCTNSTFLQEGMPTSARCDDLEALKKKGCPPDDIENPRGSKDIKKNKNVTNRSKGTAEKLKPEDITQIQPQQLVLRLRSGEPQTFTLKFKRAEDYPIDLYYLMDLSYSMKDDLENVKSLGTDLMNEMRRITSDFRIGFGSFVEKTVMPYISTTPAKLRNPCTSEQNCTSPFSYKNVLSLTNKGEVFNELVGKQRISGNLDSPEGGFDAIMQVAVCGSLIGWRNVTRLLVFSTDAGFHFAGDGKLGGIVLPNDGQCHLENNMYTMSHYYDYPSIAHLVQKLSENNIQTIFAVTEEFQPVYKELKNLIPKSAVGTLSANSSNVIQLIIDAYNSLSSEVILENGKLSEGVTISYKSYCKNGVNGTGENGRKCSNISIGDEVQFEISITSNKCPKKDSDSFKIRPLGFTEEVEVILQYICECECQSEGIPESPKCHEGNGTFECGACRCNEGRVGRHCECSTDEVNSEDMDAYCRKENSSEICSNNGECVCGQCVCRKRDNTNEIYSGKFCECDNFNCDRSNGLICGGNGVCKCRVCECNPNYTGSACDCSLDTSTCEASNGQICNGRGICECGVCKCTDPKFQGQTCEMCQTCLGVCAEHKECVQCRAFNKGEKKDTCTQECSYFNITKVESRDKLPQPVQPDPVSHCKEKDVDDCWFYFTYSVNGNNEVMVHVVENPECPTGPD

Kd: 43.6 nM
B1: SDC4_(87-131) (peptide)
peptide: NHIPERAGSGSQVPTEPKKLEENEVIPKRISPVEESEDVSNKVSM
modifications: The limits and source of the SPR ligand are not printed. The soluble ectodomain heterodimer is assumed by convention from the UniProt extracellular topology. Alpha-V may be cleaved into heavy and light chains joined by a disulfide. Amine-coupled to a CM5 chip.
